Measurements published in patent US20170058008A1 (SYNGENTA PARTICIPATIONS, published 2017).

Experiments:
[1] = biological target: ATP synthase α + β of Sf9 cells (native, both silenced together) (S. frugiperda); assay: cell-based or functional assay
[2] = biological target: ATP synthase α from S. frugiperda (native) (S. frugiperda); assay: cell-based or functional assay
[3] = biological target: ATP synthase β from S. frugiperda (native) (S. frugiperda); assay: cell-based or functional assay
[4] = biological target: Hsc70 and serpin, co-expressed in Drosophila S2 cells (S. frugiperda; M. sexta) (UniProt Q9U639); assay: cell-based or functional assay
[5] = biological target: Hsc70 from S. frugiperda (native) (S. frugiperda); assay: cell-based or functional assay
[6] = biological target: Hsc70, cadherin from M. sexta, and aminopeptidase-N (APN) from M. sexta, co-expressed in Drosophila S2 cells (S. frugiperda; M. sexta); assay: cell-based or functional assay
[7] = biological target: cell surface displayed serpin from M. sexta (yeast display, pYD1) (M. sexta); assay: biopanning of a yeast surface-displayed M. sexta cDNA library with biotinylated trypsinized Vip3A; none out of twenty clones in the control without bVip3A/T
V5-tagged Cry1Ab = biological target: T1, V5-tagged Cry1Ab (UniProt P0A370 29-607, limits assumed); assay: fluorescent confocal microscopy, co-localization on transfected Sf9 cells
T1 construct: not shown: V5 tag

biotin labeled Cry1Ab = biotin labeled Cry1Ab (UniProt P0A370 29-607, biotin labeled (sites not given)); assay: Far-Western blot, V5-enriched protein on PVDF probed with biotin labeled Cry1Ab

Q: For trypsinized Vip3A, which percent reduction of cell viability, Sf9 cells with the target silenced by dsRNA, 200 nM trypsinized Vip3A (GFP dsRNA control 30.055) [1] is on record?
A: The percent reduction of cell viability, Sf9 cells with the target silenced by dsRNA, 200 nM trypsinized Vip3A (GFP dsRNA control 30.055) was 0.986%.

Q: What about the percent reduction of cell viability, Sf9 cells with the target silenced by dsRNA, 200 nM trypsinized Vip3A (GFP dsRNA control 30.055) [2] of the same molecule?
A: The percent reduction of cell viability, Sf9 cells with the target silenced by dsRNA, 200 nM trypsinized Vip3A (GFP dsRNA control 30.055) was 0.99%.

Q: And the percent reduction of cell viability, Sf9 cells with the target silenced by dsRNA, 200 nM trypsinized Vip3A (GFP dsRNA control 30.055) [3]?
A: Its percent reduction of cell viability, Sf9 cells with the target silenced by dsRNA, 200 nM trypsinized Vip3A (GFP dsRNA control 30.055) is 22.7%.

Q: What about the % of dead cells, co-transfected S2 cells, 0 nM Vip3A [4] of the same molecule?
A: Its % of dead cells, co-transfected S2 cells, 0 nM Vip3A is 1.5%.

Q: And the % of dead cells, co-transfected S2 cells, 25 nM Vip3A [4]?
A: The % of dead cells, co-transfected S2 cells, 25 nM Vip3A was 6%.

Q: And the % of dead cells, co-transfected S2 cells, 50 nM Vip3A [4]?
A: Its % of dead cells, co-transfected S2 cells, 50 nM Vip3A is 17%.

Q: And the % of dead cells, co-transfected S2 cells, 100 nM Vip3A [4]?
A: Its % of dead cells, co-transfected S2 cells, 100 nM Vip3A is 34%.

Q: And the % of dead cells, co-transfected S2 cells, 200 nM Vip3A [4]?
A: The % of dead cells, co-transfected S2 cells, 200 nM Vip3A was 64%.

Q: What about the % of dead cells, co-transfected S2 cells, 400 nM Vip3A [4] of the same molecule?
A: The % of dead cells, co-transfected S2 cells, 400 nM Vip3A was 81%.

Q: What about the % of dead cells, co-transfected S2 cells, 800 nM Vip3A [4] of the same molecule?
A: Its % of dead cells, co-transfected S2 cells, 800 nM Vip3A is 96%.

Q: And the percent reduction of cell viability, Sf9 cells with the target silenced by dsRNA, 200 nM trypsinized Vip3A (GFP dsRNA control 30.055) [5]?
A: The percent reduction of cell viability, Sf9 cells with the target silenced by dsRNA, 200 nM trypsinized Vip3A (GFP dsRNA control 30.055) was 17.1%.

Q: What about the % of dead cells, co-transfected S2 cells, 0 nM Vip3A [6] of the same molecule?
A: Its % of dead cells, co-transfected S2 cells, 0 nM Vip3A is 4%.

Q: What about the % of dead cells, co-transfected S2 cells, 25 nM Vip3A [6] of the same molecule?
A: The % of dead cells, co-transfected S2 cells, 25 nM Vip3A was 3%.

Q: And the % of dead cells, co-transfected S2 cells, 50 nM Vip3A [6]?
A: Its % of dead cells, co-transfected S2 cells, 50 nM Vip3A is 7%.

Q: And the % of dead cells, co-transfected S2 cells, 100 nM Vip3A [6]?
A: The % of dead cells, co-transfected S2 cells, 100 nM Vip3A was 6%.

Q: What about the % of dead cells, co-transfected S2 cells, 200 nM Vip3A [6] of the same molecule?
A: The % of dead cells, co-transfected S2 cells, 200 nM Vip3A was 9%.

Q: What about the % of dead cells, co-transfected S2 cells, 400 nM Vip3A [6] of the same molecule?
A: Its % of dead cells, co-transfected S2 cells, 400 nM Vip3A is 10%.

Q: What about the % of dead cells, co-transfected S2 cells, 800 nM Vip3A [6] of the same molecule?
A: The % of dead cells, co-transfected S2 cells, 800 nM Vip3A was 8%.

Q: What about the share of sequenced clones carrying the serpin gene after seven rounds of selection [7] of the same molecule?
A: Its share of sequenced clones carrying the serpin gene after seven rounds of selection is 45%.

Q: With Vip3A as the molecule, how does the Mortality (%) Day 2, FAW larvae pretreated with dsRNA for the target, Vip3A at 100 ng/cm^2 [2] read?
A: Its Mortality (%) Day 2, FAW larvae pretreated with dsRNA for the target, Vip3A at 100 ng/cm^2 is 12.5%.

Q: And the Mortality (%) Day 6, FAW larvae pretreated with dsRNA for the target, Vip3A at 100 ng/cm^2 [2]?
A: Its Mortality (%) Day 6, FAW larvae pretreated with dsRNA for the target, Vip3A at 100 ng/cm^2 is 12.5%.

Q: And the Mortality (%) Day 10, FAW larvae pretreated with dsRNA for the target, Vip3A at 100 ng/cm^2 [2]?
A: The Mortality (%) Day 10, FAW larvae pretreated with dsRNA for the target, Vip3A at 100 ng/cm^2 was 37.5%.

Q: What about the Mortality (%) Day 2, FAW larvae pretreated with dsRNA for the target, Vip3A at 100 ng/cm^2 [3] of the same molecule?
A: The Mortality (%) Day 2, FAW larvae pretreated with dsRNA for the target, Vip3A at 100 ng/cm^2 was 0%.

Q: And the Mortality (%) Day 6, FAW larvae pretreated with dsRNA for the target, Vip3A at 100 ng/cm^2 [3]?
A: The Mortality (%) Day 6, FAW larvae pretreated with dsRNA for the target, Vip3A at 100 ng/cm^2 was 15.4%.

Q: What about the Mortality (%) Day 10, FAW larvae pretreated with dsRNA for the target, Vip3A at 100 ng/cm^2 [3] of the same molecule?
A: Its Mortality (%) Day 10, FAW larvae pretreated with dsRNA for the target, Vip3A at 100 ng/cm^2 is 53.9%.

Q: And the Mortality (%) Day 2, FAW larvae pretreated with dsRNA for the target, Vip3A at 100 ng/cm^2 [5]?
A: Its Mortality (%) Day 2, FAW larvae pretreated with dsRNA for the target, Vip3A at 100 ng/cm^2 is 0%.

Q: What about the Mortality (%) Day 6, FAW larvae pretreated with dsRNA for the target, Vip3A at 100 ng/cm^2 [5] of the same molecule?
A: The Mortality (%) Day 6, FAW larvae pretreated with dsRNA for the target, Vip3A at 100 ng/cm^2 was 0%.

Q: What about the Mortality (%) Day 10, FAW larvae pretreated with dsRNA for the target, Vip3A at 100 ng/cm^2 [5] of the same molecule?
A: Its Mortality (%) Day 10, FAW larvae pretreated with dsRNA for the target, Vip3A at 100 ng/cm^2 is 6.25%.

B1: ATP synthase α from S. frugiperda, V5/6xHis-tagged (pIZT/V5-His) (other, not shown: small tags and cut ends)
chain: MSLISARIAGSVARRLPNAASQVSKVAGVAAPAVAVASRNFHVSPTQKAAEISTILEERILGAAPKADLEETGRVLSIGDGIARVYGLKNIQAEEMVEFSSGLKGMALNLEPDNVGVVVFGNDKLIKEGDIVKRTGAIVDVPVGEQLLGRVVDALGNAIDGKGPIDTKSRMRVGIKAPGIIPRVSVREPMQTGIKAVDSLVPIGRGQRELIIGDRQTGKTALAIDTIINQQRFNKGQDEKKKLYCIYVAIGQKRSTVAQIVKRLTDAGAINYTIIVSRTASDAAPLQYLAPYSGCAMGEFFRDNGKHALIIYDDLSKQAVAYRQMSLLLRRPPGREAYPGDVFYLHSRLLERAAKMSDKMGGGSLTALPVIETQAGDVSAYIPTNVISITDGQIFLETELFYKGIRPAINVGLSVSRVGSAAQTKAMKQVAGSMKLELAQYREVAAFAQFGSDLDAATQQLLNRGMRLTELLKQGQYVPMAIEEQVAIIYCGVRGHLDKLDPSKITGFEKEFTQHIKTSHQGLLATIAKDGQITPESDAALKKIVTDFLATFTQSQ
notes: Expressed in Sf9 cells
Q: Does B1 bind (V5-tagged Cry1Ab)?
A: Result: no binding (tested: 200 nM)

Q: Does B1 bind (biotin labeled Cry1Ab)?
A: Result: no binding
